{
  "source": "patent US20040254099A1",
  "about": "“Compounds and methods for modulating beta-catenin mediated gene expression” (Adherex Technologies, Inc., priority 1999, published 2004)",
  "system": "retinoic acid receptor",
  "assay": "Retinoic acid receptor dependent transactivation (retinoic acid β promoter-luciferase reporter)",
  "type": "cell-based",
  "conditions": "MCF-7 breast cancer cells transfected with reporter plasmid and wild-type or stable (S37A) mutant β-catenin; 9-cis retinoic acid, various doses, 48 hours",
  "experimental": "FIG. 1 is a histogram depicting the enhancement of retinoic acid receptor-dependent transactivation by β-catenin. Luciferase activity, shown in relative light units, is illustrated for MCF-7 breast cancer cells transfected with the retinoic acid β promoter-luciferase reporter plasmid and a wild-type or a stable (S37A) mutant form of β-catenin (or vector alone, as a control) and treated with the indicated doses of 9-cis retinoic acid for 48 hours.\nMCF-7 breast cancer cells were transfected with the retinoic acid β promoter-luciferase reporter plasmid and a wild-type or a stable (S37A) mutant form of β-catenin (see Orford et al., J. Biol. Chem. 272:24735-24738, 1997), and treated with various doses of 9-cis retinoic acid for 48 hours. The results, presented in FIG. 1, illustrate the activity of the reporter, measured in relative light units.",
  "data": [
    {"molecule": "β-catenin: cytoplasmic protein, expressed in cells by transfection as wild-type or stable (S37A) mutant form (protein, UniProt P35222 2-781, looked up) Catenin beta-1: ATQADLMELDMAMEPDRKAAVSHWQQQSYLDSGIHSGATTTAPSLSGKGNPEEEDVDTSQVLYEWEQGFSQSFTQEQVADIDGQYAMTRAQRVRAAMFPETLDEGMQIPSTQFDAAHPTNVQRLAEPSQMLKHAVVNLINYQDDAELATRAIPELTKLLNDEDQVVVNKAAVMVHQLSKKEASRHAIMRSPQMVSAIVRTMQNTNDVETARCTAGTLHNLSHHREGLLAIFKSGGIPALVKMLGSPVDSVLFYAITTLHNLLLHQEGAKMAVRLAGGLQKMVALLNKTNVKFLAITTDCLQILAYGNQESKLIILASGGPQALVNIMRTYTYEKLLWTTSRVLKVLSVCSSNKPAIVEAGGMQALGLHLTDPSQRLVQNCLWTLRNLSDAATKQEGMEGLLGTLVQLLGSDDINVVTCAAGILSNLTCNNYKNKMMVCQVGGIEALVRTVLRAGDREDITEPAICALRHLTSRHQEAEMAQNAVRLHYGLPVVVKLLHPPSHWPLIKATVGLIRNLALCPANHAPLREQGAIPRLVQLLVRAHQDTQRRTSMGGTQQQFVEGVRMEEIVEGCTGALHILARDVHNRIVIRGLNTIPLFVQLLYSPIENIQRVAAGVLCELAQDKEAAEAIEAEGATAPLTELLHSRNEGVATYAAAVLFRMSEDKPQDYKKRLSVELTSSLFRTEPMAWNETADLGLDIGAQGEPLGYRQDDPSYRSFHSGGYGQDALGMDPMMEHEMGGHHPGADYPVDGLPDLGHAQDLMDGLPPGDSNQLAWFDTDL", "values": [
      {"measurement": "activity of the reporter (luciferase activity, relative light units)", "value": "augment the activity of the reporter"}
    ]}
  ]
}
